In the supplement of paper PMC9112550, “Optimization of the antimicrobial peptide Bac7 by deep mutational scanning” (BMC Biology, 2022):

Tested on: Escherichia coli TOP10
Assay: shrunken log2 fold change of peptide-encoding DNA abundance (4.5 h post-induction vs induction); higher = less antimicrobial activity (less host growth inhibition)
Conditions: time post-induction: 4.5 h; library: site-saturation at positions 5, 18, 19, 20
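Further: peptides expressed intracellularly from a pBAD plasmid library in pooled LB shake-flask culture, induced with 0.3% L-arabinose, DNA abundance read by NGS, three biological replicates, DESeq2 with apeglm shrinkage.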

RRIRMRPPRLPRPRPRPLKCPRP
shrunken log2 fold change: -0.0167

RRIRIRPPRLPRPRPRPFYMPRP
shrunken log2 fold change: -0.235

RRIRARPPRLPRPRPRPTGPPRP
shrunken log2 fold change: 0.284

RRIRKRPPRLPRPRPRPYPIPRP
shrunken log2 fold change: 0.11

RRIRPRPPRLPRPRPRPDRPPRP
shrunken log2 fold change: -0.0807

RRIRLRPPRLPRPRPRPDFLPRP
shrunken log2 fold change: -0.181

RRIRPRPPRLPRPRPRPTLNPRP
shrunken log2 fold change: 0.0863

RRIRERPPRLPRPRPRPSNWPRP
shrunken log2 fold change: -0.296

RRIRGRPPRLPRPRPRPFHEPRP
shrunken log2 fold change: -0.537

RRIRPRPPRLPRPRPRPGYIPRP
shrunken log2 fold change: -0.553

RRIRCRPPRLPRPRPRPHAFPRP
shrunken log2 fold change: -0.647

RRIRWRPPRLPRPRPRPLFEPRP
shrunken log2 fold change: 0.25

RRIRNRPPRLPRPRPRPSETPRP
shrunken log2 fold change: -0.083

RRIRTRPPRLPRPRPRPYTLPRP
shrunken log2 fold change: -0.000759

RRIRVRPPRLPRPRPRPDECPRP
shrunken log2 fold change: -0.00624

RRIRSRPPRLPRPRPRPSPWPRP
shrunken log2 fold change: -0.0643

RRIRCRPPRLPRPRPRPCQDPRP
shrunken log2 fold change: -0.178

RRIRLRPPRLPRPRPRPLETPRP
shrunken log2 fold change: -0.0757

RRIRVRPPRLPRPRPRPYWRPRP
shrunken log2 fold change: -0.323

RRIRTRPPRLPRPRPRPAGTPRP
shrunken log2 fold change: 0.0902

RRIRVRPPRLPRPRPRPAGFPRP
shrunken log2 fold change: 0.148

RRIRLRPPRLPRPRPRPIYGPRP
shrunken log2 fold change: 0.0275

RRIRIRPPRLPRPRPRPVGEPRP
shrunken log2 fold change: -0.0964

RRIRQRPPRLPRPRPRPLCLPRP
shrunken log2 fold change: -0.253

RRIRTRPPRLPRPRPRPIESPRP
shrunken log2 fold change: 0.0133

RRIRDRPPRLPRPRPRPGHWPRP
shrunken log2 fold change: 0.315

RRIRTRPPRLPRPRPRPNWGPRP
shrunken log2 fold change: -0.0445

RRIRDRPPRLPRPRPRPTMRPRP
shrunken log2 fold change: 1.3

RRIRERPPRLPRPRPRPVQAPRP
shrunken log2 fold change: 0.014

RRIRGRPPRLPRPRPRPQLMPRP
shrunken log2 fold change: 0.509

RRIRERPPRLPRPRPRPHYYPRP
shrunken log2 fold change: -0.83

RRIRGRPPRLPRPRPRPMDYPRP
shrunken log2 fold change: 0.0324

RRIRDRPPRLPRPRPRPKVTPRP
shrunken log2 fold change: -0.0277

RRIRKRPPRLPRPRPRPWDNPRP
shrunken log2 fold change: 0.0448

RRIRGRPPRLPRPRPRPEFHPRP
shrunken log2 fold change: 1.85

RRIRWRPPRLPRPRPRPMTSPRP
shrunken log2 fold change: 0.0704

RRIRDRPPRLPRPRPRPDWYPRP
shrunken log2 fold change: -0.0602

RRIRWRPPRLPRPRPRPCVTPRP
shrunken log2 fold change: 0.024

RRIRMRPPRLPRPRPRPGNNPRP
shrunken log2 fold change: -0.0591

RRIRQRPPRLPRPRPRPRNIPRP
shrunken log2 fold change: -0.0833

RRIRSRPPRLPRPRPRPWGKPRP
shrunken log2 fold change: -0.109

RRIRLRPPRLPRPRPRPTEVPRP
shrunken log2 fold change: -0.126

RRIRCRPPRLPRPRPRPEFQPRP
shrunken log2 fold change: 0.0126

RRIRQRPPRLPRPRPRPQMYPRP
shrunken log2 fold change: -0.0131

RRIRDRPPRLPRPRPRPQHDPRP
shrunken log2 fold change: -0.249

RRIRARPPRLPRPRPRPWLNPRP
shrunken log2 fold change: -0.175

RRIRGRPPRLPRPRPRPVHEPRP
shrunken log2 fold change: 0.434

RRIRMRPPRLPRPRPRPGGHPRP
shrunken log2 fold change: 0.516

RRIRMRPPRLPRPRPRPLVWPRP
shrunken log2 fold change: 0.955

RRIRVRPPRLPRPRPRPPMKPRP
shrunken log2 fold change: -0.117

RRIRARPPRLPRPRPRPFTWPRP
shrunken log2 fold change: -0.193

RRIRDRPPRLPRPRPRPEVDPRP
shrunken log2 fold change: 0.00961

RRIRCRPPRLPRPRPRPPDFPRP
shrunken log2 fold change: -0.00542

RRIRKRPPRLPRPRPRPMRYPRP
shrunken log2 fold change: 0.239

RRIRRRPPRLPRPRPRPMSNPRP
shrunken log2 fold change: -0.0453

RRIRRRPPRLPRPRPRPVETPRP
shrunken log2 fold change: 0.181

RRIRQRPPRLPRPRPRPQGEPRP
shrunken log2 fold change: -0.154

RRIRRRPPRLPRPRPRPLYHPRP
shrunken log2 fold change: -0.353

RRIRERPPRLPRPRPRPMEMPRP
shrunken log2 fold change: 0.0606

RRIRRRPPRLPRPRPRPHLNPRP
shrunken log2 fold change: -0.194

RRIRHRPPRLPRPRPRPIVIPRP
shrunken log2 fold change: -0.158

RRIRRRPPRLPRPRPRPTINPRP
shrunken log2 fold change: -0.134

RRIRVRPPRLPRPRPRPGLVPRP
shrunken log2 fold change: 0.807

RRIRERPPRLPRPRPRPDWMPRP
shrunken log2 fold change: 0.0111

RRIRPRPPRLPRPRPRPCNKPRP
shrunken log2 fold change: -0.102

RRIRMRPPRLPRPRPRPLKRPRP
shrunken log2 fold change: 0.0303

RRIRFRPPRLPRPRPRPNQRPRP
shrunken log2 fold change: 0.269

RRIRFRPPRLPRPRPRPEVMPRP
shrunken log2 fold change: -0.0905

RRIRIRPPRLPRPRPRPYQKPRP
shrunken log2 fold change: -0.243

RRIRPRPPRLPRPRPRPMMNPRP
shrunken log2 fold change: 0.03

RRIRPRPPRLPRPRPRPLLWPRP
shrunken log2 fold change: 0.0186

RRIRNRPPRLPRPRPRPDHQPRP
shrunken log2 fold change: 0.113

RRIRLRPPRLPRPRPRPGTHPRP
shrunken log2 fold change: -0.107

RRIRIRPPRLPRPRPRPHRTPRP
shrunken log2 fold change: -0.125

RRIRLRPPRLPRPRPRPCTCPRP
shrunken log2 fold change: -0.238

RRIRSRPPRLPRPRPRPWLYPRP
shrunken log2 fold change: -0.652

RRIRQRPPRLPRPRPRPIQNPRP
shrunken log2 fold change: -0.11

RRIRYRPPRLPRPRPRPRNIPRP
shrunken log2 fold change: -0.00665

RRIRGRPPRLPRPRPRPFPWPRP
shrunken log2 fold change: 0.383

RRIRHRPPRLPRPRPRPVVDPRP
shrunken log2 fold change: -0.109

RRIRQRPPRLPRPRPRPLAIPRP
shrunken log2 fold change: -0.122

RRIRWRPPRLPRPRPRPFCCPRP
shrunken log2 fold change: -0.163

RRIRDRPPRLPRPRPRPMSSPRP
shrunken log2 fold change: 0.0508

RRIRDRPPRLPRPRPRPLGCPRP
shrunken log2 fold change: 0.206

RRIRTRPPRLPRPRPRPRWDPRP
shrunken log2 fold change: 0.0818

RRIRHRPPRLPRPRPRPFMQPRP
shrunken log2 fold change: -0.348

RRIRDRPPRLPRPRPRPEFLPRP
shrunken log2 fold change: 0.0745

RRIRMRPPRLPRPRPRPHTGPRP
shrunken log2 fold change: 0.0957

RRIRNRPPRLPRPRPRPAMPPRP
shrunken log2 fold change: 0.236

RRIRHRPPRLPRPRPRPIIKPRP
shrunken log2 fold change: -0.279

RRIRVRPPRLPRPRPRPMCDPRP
shrunken log2 fold change: -0.0462

RRIRKRPPRLPRPRPRPGKKPRP
shrunken log2 fold change: -0.0204

RRIRYRPPRLPRPRPRPKSCPRP
shrunken log2 fold change: -0.0262

RRIRQRPPRLPRPRPRPTTYPRP
shrunken log2 fold change: -0.282

RRIRWRPPRLPRPRPRPHHFPRP
shrunken log2 fold change: -0.0138

RRIRWRPPRLPRPRPRPTYGPRP
shrunken log2 fold change: 0.0553

RRIRPRPPRLPRPRPRPMNVPRP
shrunken log2 fold change: -0.0376

RRIRIRPPRLPRPRPRPWLRPRP
shrunken log2 fold change: -0.358

RRIRHRPPRLPRPRPRPQRNPRP
shrunken log2 fold change: -0.223

RRIRLRPPRLPRPRPRPSVQPRP
shrunken log2 fold change: -0.57

RRIRFRPPRLPRPRPRPRESPRP
shrunken log2 fold change: 0.45

RRIRDRPPRLPRPRPRPDTGPRP
shrunken log2 fold change: 0.018

RRIRQRPPRLPRPRPRPGMRPRP
shrunken log2 fold change: 0.941

RRIRSRPPRLPRPRPRPMKDPRP
shrunken log2 fold change: -0.157

RRIRHRPPRLPRPRPRPYHEPRP
shrunken log2 fold change: -0.0135

RRIRMRPPRLPRPRPRPGYYPRP
shrunken log2 fold change: -0.0156

RRIRQRPPRLPRPRPRPSVGPRP
shrunken log2 fold change: 0.119

RRIRCRPPRLPRPRPRPCTIPRP
shrunken log2 fold change: 0.105

RRIRCRPPRLPRPRPRPCSRPRP
shrunken log2 fold change: -0.0999

RRIRQRPPRLPRPRPRPFPHPRP
shrunken log2 fold change: 0.259

RRIRWRPPRLPRPRPRPHQPPRP
shrunken log2 fold change: 0.145

RRIRSRPPRLPRPRPRPSFIPRP
shrunken log2 fold change: -0.661

RRIRKRPPRLPRPRPRPQKAPRP
shrunken log2 fold change: -0.0155

RRIRQRPPRLPRPRPRPTPWPRP
shrunken log2 fold change: 0.619

RRIRHRPPRLPRPRPRPPGCPRP
shrunken log2 fold change: 0.184

RRIRTRPPRLPRPRPRPGYMPRP
shrunken log2 fold change: -0.297

RRIRDRPPRLPRPRPRPFQYPRP
shrunken log2 fold change: 0.0242

RRIRRRPPRLPRPRPRPQPTPRP
shrunken log2 fold change: 0.533

RRIRHRPPRLPRPRPRPVAHPRP
shrunken log2 fold change: -0.00816

RRIRMRPPRLPRPRPRPPWCPRP
shrunken log2 fold change: 0.831

RRIRNRPPRLPRPRPRPAEAPRP
shrunken log2 fold change: 0.057

RRIRSRPPRLPRPRPRPMLDPRP
shrunken log2 fold change: -0.291

RRIRVRPPRLPRPRPRPTNNPRP
shrunken log2 fold change: -0.398

RRIRFRPPRLPRPRPRPVDAPRP
shrunken log2 fold change: 0.183

RRIRNRPPRLPRPRPRPMERPRP
shrunken log2 fold change: 0.019

RRIRFRPPRLPRPRPRPIKYPRP
shrunken log2 fold change: -0.335

RRIRYRPPRLPRPRPRPQLFPRP
shrunken log2 fold change: -0.745

RRIRVRPPRLPRPRPRPETCPRP
shrunken log2 fold change: 0.437

RRIRRRPPRLPRPRPRPFNMPRP
shrunken log2 fold change: -0.362

RRIRMRPPRLPRPRPRPHDLPRP
shrunken log2 fold change: -0.0136

RRIRQRPPRLPRPRPRPPTCPRP
shrunken log2 fold change: 0.224

RRIRTRPPRLPRPRPRPREVPRP
shrunken log2 fold change: 0.442

RRIRLRPPRLPRPRPRPWCWPRP
shrunken log2 fold change: 0.0542

RRIRVRPPRLPRPRPRPESKPRP
shrunken log2 fold change: 0.00683

RRIRLRPPRLPRPRPRPRHQPRP
shrunken log2 fold change: -0.254

RRIRDRPPRLPRPRPRPLMTPRP
shrunken log2 fold change: 0.195

RRIRMRPPRLPRPRPRPIWSPRP
shrunken log2 fold change: 0.0584

RRIRVRPPRLPRPRPRPCHHPRP
shrunken log2 fold change: -0.00671

RRIRNRPPRLPRPRPRPDDDPRP
shrunken log2 fold change: -0.153

RRIRSRPPRLPRPRPRPHDCPRP
shrunken log2 fold change: -0.0708

RRIRGRPPRLPRPRPRPWQDPRP
shrunken log2 fold change: 0.00455

RRIRGRPPRLPRPRPRPSSQPRP
shrunken log2 fold change: 0.099

RRIRFRPPRLPRPRPRPMKRPRP
shrunken log2 fold change: 0.347

RRIRSRPPRLPRPRPRPMHQPRP
shrunken log2 fold change: -0.0538

RRIRFRPPRLPRPRPRPWYNPRP
shrunken log2 fold change: -0.134

RRIRPRPPRLPRPRPRPKHLPRP
shrunken log2 fold change: -0.355

RRIRSRPPRLPRPRPRPFAGPRP
shrunken log2 fold change: -0.00284

RRIRERPPRLPRPRPRPFQIPRP
shrunken log2 fold change: -0.145

RRIRERPPRLPRPRPRPCVHPRP
shrunken log2 fold change: -0.0795

RRIRIRPPRLPRPRPRPHKPPRP
shrunken log2 fold change: -0.00445
